Measurements taken from patent publication US20190144503A1 (REGENTS OF THE UNIVERSITY OF MINNESOTA, published 2019).
Where two headings read alike, the source gives them in different places. One block for each binder: values may come before it.

Tests used:
[1] = molecular target: T1, recombinant His-tagged human carbonic anhydrase 9 (human, UniProt Q16790 38-414); test: binding of the purified clone to CA9 (FIG. 14B); method not stated
[2] = molecular target: T1, recombinant His-tagged human carbonic …; test: titration of the purified clone, Relative Binding to CA9 against concentration (x axis printed 'AAZ Concentration (nM)'); assay format not described
[3] = molecular target: T1, recombinant His-tagged human carbonic …; test: as above; remark: listed apart in the source

B2: Clone 0.3.9 fibronectin type III domain (SEQ ID NO: 4) not conjugated to AAZ (designed binder)
chain: MASSSDSPRNLEVTNATPNSLTISWDDSYCVIYYRITYGETGGNSPSQEFTVPGYTNSVTISGLKPGQDYTITVYAVTDYSKLDPSNPISINYRTEIDKPSQGS
Kd [2]: 170 nM

B4: Clone 0.3.10 fibronectin type III domain (SEQ ID NO: 3) not conjugated to AAZ (designed binder)
chain: MASSSDSPRNLEVTNATPNSLTISWDSYLDCAYYYRITYGETGGNSPSQEFTVPGYTNSVTISGLKPGQDYTITVYAVASSNDVSNPISINYRTEIDKPSQGS
Kd [3]: 600 nM

Continued, values first:

fold higher affinity than the Fn not conjugated to AAZ [1]: ~6 fold
Kd [2]: ~30 nM
B1: Fn-AAZ clone 0.3.9 (fibronectin type III domain of SEQ ID NO: 4 conjugated to acetazolamide) (designed binder)
chain: B2 chain
modifications: acetazolamide (AAZ) conjugated through a maleimide-PEG linker to the single cysteine; PEG length not stated for this clone
notes: Expressed and purified clone, conjugated with maleimide-PEG-AAZ; also called second Fn-AAZ clone; second Fn-AAZ conjugate

Kd [3]: 60 nM
B3: Fn-AAZ clone 0.3.10 (fibronectin type III domain of SEQ ID NO: 3 conjugated to acetazolamide) (designed binder)
chain: B4 chain
modifications: acetazolamide (AAZ) conjugated through a maleimide-PEG linker to the single cysteine; PEG length not stated for this clone
notes: Expressed and purified clone, conjugated with maleimide-PEG-AAZ; also called first Fn-AAZ clone; first Fn-AAZ conjugate
